Assay results: publication PMC2568807

Target: ovine CRY1 (Cryptochrome 1), Flag-tagged (sheep)

## ovine Fbxl21 full-length, Myc-tagged (from UniProt B3FL73 1-434) (natural protein)
  attenuation of oCRY1 repression of oCLK/oBM1-induced oRev-erb alpha luciferase reporter transactivation in COS7 cells (100 or 200 ng Fbxl vector): 75%
